Test results reported in PMC10516966.

Biological target: T1, Rat TRPV2 (transient receptor potential vanilloid 2 channel), full length, C-terminal 1D4 tag (rat), Q9WUD2
T1 chain: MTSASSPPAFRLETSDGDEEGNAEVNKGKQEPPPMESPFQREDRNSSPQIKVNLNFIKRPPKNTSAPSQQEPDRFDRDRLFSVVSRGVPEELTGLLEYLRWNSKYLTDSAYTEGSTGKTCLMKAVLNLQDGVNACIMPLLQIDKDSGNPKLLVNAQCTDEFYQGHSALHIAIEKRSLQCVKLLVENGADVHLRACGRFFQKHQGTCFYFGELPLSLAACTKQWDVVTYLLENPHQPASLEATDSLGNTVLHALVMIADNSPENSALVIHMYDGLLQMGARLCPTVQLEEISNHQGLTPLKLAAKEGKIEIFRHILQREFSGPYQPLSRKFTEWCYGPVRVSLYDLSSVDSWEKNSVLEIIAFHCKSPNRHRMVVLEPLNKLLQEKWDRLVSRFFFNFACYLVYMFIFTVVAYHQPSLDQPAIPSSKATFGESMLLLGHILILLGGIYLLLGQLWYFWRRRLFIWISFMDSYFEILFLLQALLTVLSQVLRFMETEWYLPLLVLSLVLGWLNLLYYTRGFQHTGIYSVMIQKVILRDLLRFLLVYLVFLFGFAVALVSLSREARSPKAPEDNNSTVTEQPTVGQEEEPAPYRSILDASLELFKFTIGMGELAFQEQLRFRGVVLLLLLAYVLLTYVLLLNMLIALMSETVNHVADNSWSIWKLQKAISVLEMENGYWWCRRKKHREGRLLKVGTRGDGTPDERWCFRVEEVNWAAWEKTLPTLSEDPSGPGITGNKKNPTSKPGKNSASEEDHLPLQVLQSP
Assay: high-speed atomic force microscopy (HS-AFM); TRPV2 reconstituted into soy polar lipid membranes (LPR 0.5-0.7) on mica; imaging buffer 20 mM Hepes pH 8.0, 150 mM NaCl; contacts between neighbouring tetramers scored as connected or not in binarised frames; dwell times fitted with a single exponential; thick continuous connections excluded
Conditions: remark: other sources report otherwise

connection lifetime time constant: 2.2 s
B1: Rat TRPV2 (transient receptor potential vanilloid 2 channel), full length, C-terminal 1D4 tag, Q9WUD2 1-761 (natural protein)
chain: MTSASSPPAFRLETSDGDEEGNAEVNKGKQEPPPMESPFQREDRNSSPQIKVNLNFIKRPPKNTSAPSQQEPDRFDRDRLFSVVSRGVPEELTGLLEYLRWNSKYLTDSAYTEGSTGKTCLMKAVLNLQDGVNACIMPLLQIDKDSGNPKLLVNAQCTDEFYQGHSALHIAIEKRSLQCVKLLVENGADVHLRACGRFFQKHQGTCFYFGELPLSLAACTKQWDVVTYLLENPHQPASLEATDSLGNTVLHALVMIADNSPENSALVIHMYDGLLQMGARLCPTVQLEEISNHQGLTPLKLAAKEGKIEIFRHILQREFSGPYQPLSRKFTEWCYGPVRVSLYDLSSVDSWEKNSVLEIIAFHCKSPNRHRMVVLEPLNKLLQEKWDRLVSRFFFNFACYLVYMFIFTVVAYHQPSLDQPAIPSSKATFGESMLLLGHILILLGGIYLLLGQLWYFWRRRLFIWISFMDSYFEILFLLQALLTVLSQVLRFMETEWYLPLLVLSLVLGWLNLLYYTRGFQHTGIYSVMIQKVILRDLLRFLLVYLVFLFGFAVALVSLSREARSPKAPEDNNSTVTEQPTVGQEEEPAPYRSILDASLELFKFTIGMGELAFQEQLRFRGVVLLLLLAYVLLTYVLLLNMLIALMSETVNHVADNSWSIWKLQKAISVLEMENGYWWCRRKKHREGRLLKVGTRGDGTPDERWCFRVEEVNWAAWEKTLPTLSEDPSGPGITGNKKNPTSKPGKNSASEEDHLPLQVLQSP
